Test results from PMC11563578 (eLife, 2024).

B1: RNA polymerase II subunit Rpb7 (natural protein, S. cerevisiae, UniProt P34087 1-171, looked up)
chain: MFFIKDLSLNITLHPSFFGPRMKQYLKTKLLEEVEGSCTGKFGYILCVLDYDNIDIQRGRILPTDGSAEFNVKYRAVVFKPFKGEVVDGTVVSCSQHGFEVQVGPMKVFVTKHLMPQDLTFNAGSNPPSYQSSEDVITIKSRIRVKIEGCISQVSSIHAIGSIKEDYLGAI
notes: Rpb7, subunit of yeast RNA polymerase II; also called Rbp7; source: endogenous, S. cerevisiae; sub-stoichiometric from the Δrpb4 RPB2-HFH strain
B2: RNA polymerase II subunit Rpb9 (natural protein, S. cerevisiae, UniProt P27999 1-122, looked up)
chain: MTTFRFCRDCNNMLYPREDKENNRLLFECRTCSYVEEAGSPLVYRHELITNIGETAGVVQDIGSDPTLPRSDRECPKCHSRENVFFQSQQRRKDTSMVLFFVCLSCSHIFTSDQKNKRTQFS
notes: Rpb9, subunit of yeast RNA polymerase II; source: endogenous, S. cerevisiae; also the Δrpb4 RPB2-HFH strain

Molecular target: T1, RNA polymerase II subunit Rpb1 (S. cerevisiae, UniProt P04050 1-1733)
T1 construct: Rpb1, largest subunit of yeast RNA polymerase II; source: endogenous, S. cerevisiae; also the Δrpb4 RPB2-HFH strain
T1 sequence (P04050 whole entry): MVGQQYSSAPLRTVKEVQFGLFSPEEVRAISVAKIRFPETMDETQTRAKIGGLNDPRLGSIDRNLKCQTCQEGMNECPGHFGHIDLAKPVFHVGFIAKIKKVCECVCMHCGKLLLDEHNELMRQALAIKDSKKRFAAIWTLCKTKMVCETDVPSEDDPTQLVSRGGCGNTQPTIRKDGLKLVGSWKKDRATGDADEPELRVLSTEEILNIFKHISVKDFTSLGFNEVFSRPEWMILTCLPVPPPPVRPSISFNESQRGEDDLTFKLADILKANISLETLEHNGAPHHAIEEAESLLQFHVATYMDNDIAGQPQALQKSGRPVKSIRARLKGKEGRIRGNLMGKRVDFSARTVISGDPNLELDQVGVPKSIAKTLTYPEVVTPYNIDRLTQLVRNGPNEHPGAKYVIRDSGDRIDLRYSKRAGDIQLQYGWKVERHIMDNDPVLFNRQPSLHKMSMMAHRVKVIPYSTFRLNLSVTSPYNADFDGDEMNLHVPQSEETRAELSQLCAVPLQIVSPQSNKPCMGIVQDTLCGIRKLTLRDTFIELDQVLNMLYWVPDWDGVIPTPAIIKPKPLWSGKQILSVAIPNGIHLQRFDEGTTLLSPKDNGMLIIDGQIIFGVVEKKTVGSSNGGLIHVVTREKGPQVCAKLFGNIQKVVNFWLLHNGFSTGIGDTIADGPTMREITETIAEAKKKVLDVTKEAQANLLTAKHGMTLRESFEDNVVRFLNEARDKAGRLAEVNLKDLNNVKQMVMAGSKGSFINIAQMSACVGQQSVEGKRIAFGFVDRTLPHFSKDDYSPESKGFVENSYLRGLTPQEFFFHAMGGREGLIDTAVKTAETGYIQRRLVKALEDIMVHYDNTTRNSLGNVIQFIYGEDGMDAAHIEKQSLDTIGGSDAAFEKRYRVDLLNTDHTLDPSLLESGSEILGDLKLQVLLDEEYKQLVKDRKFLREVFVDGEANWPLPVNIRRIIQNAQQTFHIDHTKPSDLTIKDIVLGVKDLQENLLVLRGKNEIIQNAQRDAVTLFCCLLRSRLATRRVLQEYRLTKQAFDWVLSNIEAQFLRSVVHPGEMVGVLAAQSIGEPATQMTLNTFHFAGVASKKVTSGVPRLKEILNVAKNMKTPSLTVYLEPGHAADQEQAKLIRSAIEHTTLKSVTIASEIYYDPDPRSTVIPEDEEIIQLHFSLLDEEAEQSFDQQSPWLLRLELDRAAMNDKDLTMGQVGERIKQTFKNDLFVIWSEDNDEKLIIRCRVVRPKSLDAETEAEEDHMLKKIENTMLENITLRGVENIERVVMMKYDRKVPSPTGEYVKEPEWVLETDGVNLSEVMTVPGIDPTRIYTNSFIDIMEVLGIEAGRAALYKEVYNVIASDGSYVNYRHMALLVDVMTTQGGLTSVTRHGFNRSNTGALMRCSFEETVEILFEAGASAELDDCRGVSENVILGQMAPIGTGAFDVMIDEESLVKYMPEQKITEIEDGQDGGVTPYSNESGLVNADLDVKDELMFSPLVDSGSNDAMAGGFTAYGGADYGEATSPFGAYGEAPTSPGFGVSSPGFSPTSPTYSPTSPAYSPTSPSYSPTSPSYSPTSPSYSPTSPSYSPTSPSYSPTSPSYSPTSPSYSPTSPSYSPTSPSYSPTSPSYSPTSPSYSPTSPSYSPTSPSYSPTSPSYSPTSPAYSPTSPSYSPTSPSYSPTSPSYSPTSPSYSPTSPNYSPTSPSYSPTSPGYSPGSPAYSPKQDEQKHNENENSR
Test: cross-linking; affinity-purified holo-pol II and ΔRpb4 pol II cross-linked with C1q2/C2q2 Q2linkers in a crosslinker swapping experiment (experiments I and II), pooled, MS; crosslinks identified with pLink2 and Nexus against the 12 pol II subunits
Details: both partners purified

Row | Binder | binding result
1 | B1 | binds
2 | B2 | binds
